Assay results published in IntAct's records for PubMed 20308558.

B1: Ras-related protein Rab-11A (Homo sapiens), P62491 (parent)
chain: MGTRDDEYDYLFKVVLIGDSGVGKSNLLSRFTRNEFNLESKSTIGVEFATRSIQVDGKTIKAQIWDTAGQERYRAITSAYYRGAVGALLVYDIAKHLTYENVERWLKELRDHADSNIVIMLVGNKSDLRHLRAVPTDEARAFAEKNGLSFIETSALDSTNVEAAFQTILTEIYRIVSQKQMSDRRENDMSPSNNVVPIHVPPTTENKPKVQCCQNI
partner: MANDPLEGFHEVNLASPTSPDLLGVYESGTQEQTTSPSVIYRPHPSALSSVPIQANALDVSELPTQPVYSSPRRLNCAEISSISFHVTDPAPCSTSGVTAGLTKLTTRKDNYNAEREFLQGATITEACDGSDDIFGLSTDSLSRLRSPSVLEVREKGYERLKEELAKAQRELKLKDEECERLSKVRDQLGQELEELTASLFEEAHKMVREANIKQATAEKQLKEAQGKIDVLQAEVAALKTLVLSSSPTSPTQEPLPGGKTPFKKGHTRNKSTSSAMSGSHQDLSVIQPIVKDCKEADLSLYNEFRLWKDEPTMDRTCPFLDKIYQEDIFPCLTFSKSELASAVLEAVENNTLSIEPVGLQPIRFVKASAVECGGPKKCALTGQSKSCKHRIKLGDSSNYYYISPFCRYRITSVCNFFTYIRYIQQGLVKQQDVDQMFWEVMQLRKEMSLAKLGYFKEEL

Variants of: B1
Conditions: with RAB3IP

| effect of a mutation on the interaction | Variant |
| --- | --- |
| decreasing interaction | S25N |
| increasing interaction | Q70L |
